Reference: US20200140562A1 (Innovent, published 2020)

Columns and labels:
[1] = target: T1, human OX40 on cells (CHO-hOX40, 293HEK-hOX40, Jurkat-hOX40, activated primary CD4+ T cells) (human, UniProt P43489 29-277); test: flow cytometry, CHO-hOX40, 0.09765625 nM
T1 construct: whole, on cells; The cell type is told in each assay; also called CHO-OX40
T1 sequence (looked up): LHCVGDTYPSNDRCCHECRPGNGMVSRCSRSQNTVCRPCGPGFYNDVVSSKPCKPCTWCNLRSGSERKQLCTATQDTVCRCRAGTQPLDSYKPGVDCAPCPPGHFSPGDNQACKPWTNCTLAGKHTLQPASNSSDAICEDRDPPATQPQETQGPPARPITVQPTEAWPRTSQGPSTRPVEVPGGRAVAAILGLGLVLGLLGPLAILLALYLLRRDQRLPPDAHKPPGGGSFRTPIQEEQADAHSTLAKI

[2] = target: T1, human OX40 on cells (CHO-hOX40, …); test: flow cytometry, CHO-hOX40, 0.78125 nM
[3] = target: T1, human OX40 on cells (CHO-hOX40, …); test: flow cytometry, CHO-hOX40, 0.390625 nM
[4] = target: T1, human OX40 on cells (CHO-hOX40, …); test: flow cytometry, CHO-hOX40, 12.5 nM
[5] = target: T1, human OX40 on cells (CHO-hOX40, …); test: flow cytometry, CHO-hOX40, 50 nM
[6] = target: T1, human OX40 on cells (CHO-hOX40, …); test: flow cytometry, CHO-hOX40, 3.125 nM
[7] = target: T1, human OX40 on cells (CHO-hOX40, …); test: flow cytometry, CHO-hOX40, 200 nM
[8] = target: T1, human OX40 on cells (CHO-hOX40, …); test: flow cytometry, CHO-hOX40, 0.1953125 nM
[9] = target: T1, human OX40 on cells (CHO-hOX40, …); test: flow cytometry, CHO-hOX40, 50 nM; remark: listed apart in the source
[10] = target: T1, human OX40 on cells (CHO-hOX40, …); test: flow cytometry, CHO-hOX40, 100 nM
[11] = target: T1, human OX40 on cells (CHO-hOX40, …); test: flow cytometry, CHO-hOX40, 25 nM
[12] = target: T1, human OX40 on cells (CHO-hOX40, …); test: flow cytometry, CHO-hOX40, 12.5 nM; remark: listed apart in the source
[13] = target: T1, human OX40 on cells (CHO-hOX40, …); test: flow cytometry, CHO-hOX40, 0.390625 nM; remark: listed apart in the source
[14] = target: T1, human OX40 on cells (CHO-hOX40, …); test: flow cytometry, CHO-hOX40, 0.1953125 nM; remark: listed apart in the source
[15] = target: T1, human OX40 on cells (CHO-hOX40, …); test: flow cytometry, CHO-hOX40, 0.024414063 nM
[16] = target: T1, human OX40 on cells (CHO-hOX40, …); test: flow cytometry, CHO-hOX40, 6.25 nM
[17] = target: T1, human OX40 on cells (CHO-hOX40, …); test: flow cytometry, CHO-hOX40, 0.09765625 nM; remark: listed apart in the source
[18] = target: T1, human OX40 on cells (CHO-hOX40, …); test: flow cytometry, CHO-hOX40, 6.25 nM; remark: listed apart in the source
[19] = target: T1, human OX40 on cells (CHO-hOX40, …); test: flow cytometry, CHO-hOX40, 200 nM; remark: listed apart in the source
[20] = target: T1, human OX40 on cells (CHO-hOX40, …); test: flow cytometry, CHO-hOX40, 1.5625 nM

MFI [1]: 35200 MFI
MFI [2]: 86000 MFI
MFI [3]: 49700 MFI
MFI [4]: 1.99e+06 MFI
MFI [5]: 2.72e+06 MFI
MFI [6]: 342000 MFI
MFI [7]: 2.08e+06 MFI
MFI [8]: 24800 MFI
MFI [9]: 1.08e+06 MFI
MFI [10]: 2.51e+06 MFI
MFI [11]: 1.84e+06 MFI
MFI [12]: 1.11e+06 MFI
MFI [13]: 119000 MFI
MFI [14]: 83200 MFI
MFI [15]: 12800 MFI
MFI [16]: 600000 MFI
MFI [17]: 14500 MFI
MFI [18]: 1.48e+06 MFI
MFI [19]: 2.68e+06 MFI
MFI [20]: 172000 MFI
B1: OX40L (control reagent; recombinant OX40L, Acro Biosystems) (ligand, UniProt P23510 51-183, looked up)
chain: QVSHRYPRIQSIKVQFTEYKKEKGFILTSQKEDEIMKVQNNSVIINCDGFYLISLKGYFSQEVNISLHYQKDEEPLFQLKKVRSVNSLMVASLTYKDKVYLNVTTDNTSLDDFHVNGGELILIHQNPGEFCVL
notes: may be the same reagent as OX40L-hFc
